Source: patent publication US20150290319A1 (EMERGENT BIOSOLUTIONS CANADA, published 2015)

Columns and labels:
[1] = biological target: T1, Clostridium difficile toxin B (whole toxin B) (Clostridium difficile); assay: BLI (Octet QKe), mAb on SA sensor, toxin B analyte, model 1:1; head prints KD (nM) but Kdis/Kon gives this number in M
T1 construct: also called TcdB; tcdB

[2] = biological target: T1, Clostridium difficile toxin B (whole …); assay: BLI (Octet QKe), mAb from CHOK1SV, toxin B; column kdis2 (1/s)
[3] = biological target: T2, recombinant toxin B fragment 4 (Clostridium difficile, UniProt P18177 1777-2366); assay: Western blot, 3 ug protein per lane, mAb from CHOK1SV at 5 ug/mL
T2 sequence (P18177 1777-2366 limits assumed): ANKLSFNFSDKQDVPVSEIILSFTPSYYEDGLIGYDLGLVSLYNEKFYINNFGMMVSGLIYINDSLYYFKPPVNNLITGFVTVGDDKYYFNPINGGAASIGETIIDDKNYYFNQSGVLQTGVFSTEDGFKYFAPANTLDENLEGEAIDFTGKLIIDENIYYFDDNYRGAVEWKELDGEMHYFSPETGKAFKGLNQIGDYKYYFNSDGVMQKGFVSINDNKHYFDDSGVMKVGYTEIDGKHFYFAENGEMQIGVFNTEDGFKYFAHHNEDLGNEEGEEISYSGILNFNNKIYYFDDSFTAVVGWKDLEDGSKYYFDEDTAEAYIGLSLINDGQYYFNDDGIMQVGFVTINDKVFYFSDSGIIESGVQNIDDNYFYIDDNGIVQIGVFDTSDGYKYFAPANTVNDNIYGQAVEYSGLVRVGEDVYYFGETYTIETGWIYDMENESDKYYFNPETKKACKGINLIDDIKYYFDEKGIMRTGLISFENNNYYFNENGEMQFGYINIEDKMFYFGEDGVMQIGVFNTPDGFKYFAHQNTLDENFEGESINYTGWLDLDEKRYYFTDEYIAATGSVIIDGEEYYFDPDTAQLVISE

[4] = biological target: T1, Clostridium difficile toxin B (whole …); assay: BLI (Octet QKe), mAb on SA sensor, toxin B analyte, model 1:1
[5] = biological target: T2, recombinant toxin B fragment 4; assay: Western blot, 3 ug protein per lane, mAb from CHOK1SV at 0.038 ug/mL [Cont.]
[6] = biological target: recombinant toxin B fragment 1 (Clostridium difficile, UniProt P18177 1-546); assay: as above
Sequence of recombinant toxin B fragment 1 (P18177 1-546 limits assumed): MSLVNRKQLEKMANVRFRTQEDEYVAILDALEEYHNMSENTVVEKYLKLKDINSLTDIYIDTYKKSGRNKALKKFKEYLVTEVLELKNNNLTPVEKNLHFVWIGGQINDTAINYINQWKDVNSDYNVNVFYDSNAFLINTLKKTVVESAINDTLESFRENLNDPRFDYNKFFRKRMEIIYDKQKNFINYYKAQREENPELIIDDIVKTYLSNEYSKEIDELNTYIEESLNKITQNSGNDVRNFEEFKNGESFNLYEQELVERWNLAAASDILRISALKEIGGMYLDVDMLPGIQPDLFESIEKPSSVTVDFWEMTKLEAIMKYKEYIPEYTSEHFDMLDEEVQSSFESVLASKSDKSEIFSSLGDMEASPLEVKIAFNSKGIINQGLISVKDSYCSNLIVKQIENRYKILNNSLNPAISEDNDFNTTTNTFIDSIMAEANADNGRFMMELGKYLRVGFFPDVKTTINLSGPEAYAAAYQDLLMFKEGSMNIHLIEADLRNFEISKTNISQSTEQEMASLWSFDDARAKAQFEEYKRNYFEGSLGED

B1: huCAN46G13a (antibody, V domains shown)
VH: QVQLQESGPGLVKPSQTLSLTCTVTGYSITSDSAWNWIRQFPGNNLEWMGYISYSGSTSYNPSLKSRISITRDTSKNQFSLKVNSVTAADTAVYYCARRSRVSFYFDYWGQGTLVTVSS
VL: ENVLTQSPSSLSASVGDRVTMTCSASSSVSSSYLHWYQQKPGKSPKPLIHRTSTLASGVPSRFSGSGSGTSYSLTISSLQPEDIATYYCQQWSGYPYTFGGGTKVEIK
- Kd [1]: 0.423 nM
- koff [2]: < 1e-07 s⁻¹
- binding result [3]: no binding (tested: 5 ug/mL)
- koff [4]: 0.000234 s⁻¹
- kon [4]: 552000 M⁻¹ s⁻¹

B2: huCAN46G24 (antibody, V domains shown)
VH: EVQLVQSGAEVKKPGESVKVSCKASGYSFTGYYIHWVKQAPGQGLEWVGRIFPYNGAASYNQNFKGKATLTVDKSSSTAYMELSSLRSEDTAVYFCARWLRVYFDYWGQGTTVTVSS
VL: EIVLTQSPSSLSTSVGDRVTISCSASSSVTYMHWYQQKPGKAPKLWIYETSKLASGVPGRFSGSGSGNSYTFTISSLQPEDIATYYCFQGSGYPFTFGQGTKVEIK
notes: also called HuCAN46G24-2-3
- binding result [5]: binds
- binding result [6]: no binding (tested: 0.038 ug/mL)
